Source: paper doi:10.1101/2025.09.05.674518 (bioRxiv, 2025)
Numbering of substitutions follows the chain as printed. One block for each binder: values may come before it.

Experiments:
[1] = molecular target: recombinant wild-type human MXA (Homo sapiens, UniProt P20591); experiment: ELISA
M527D MXA = molecular target: T1, M527D MXA (Homo sapiens, UniProt P20591)
T1 chain: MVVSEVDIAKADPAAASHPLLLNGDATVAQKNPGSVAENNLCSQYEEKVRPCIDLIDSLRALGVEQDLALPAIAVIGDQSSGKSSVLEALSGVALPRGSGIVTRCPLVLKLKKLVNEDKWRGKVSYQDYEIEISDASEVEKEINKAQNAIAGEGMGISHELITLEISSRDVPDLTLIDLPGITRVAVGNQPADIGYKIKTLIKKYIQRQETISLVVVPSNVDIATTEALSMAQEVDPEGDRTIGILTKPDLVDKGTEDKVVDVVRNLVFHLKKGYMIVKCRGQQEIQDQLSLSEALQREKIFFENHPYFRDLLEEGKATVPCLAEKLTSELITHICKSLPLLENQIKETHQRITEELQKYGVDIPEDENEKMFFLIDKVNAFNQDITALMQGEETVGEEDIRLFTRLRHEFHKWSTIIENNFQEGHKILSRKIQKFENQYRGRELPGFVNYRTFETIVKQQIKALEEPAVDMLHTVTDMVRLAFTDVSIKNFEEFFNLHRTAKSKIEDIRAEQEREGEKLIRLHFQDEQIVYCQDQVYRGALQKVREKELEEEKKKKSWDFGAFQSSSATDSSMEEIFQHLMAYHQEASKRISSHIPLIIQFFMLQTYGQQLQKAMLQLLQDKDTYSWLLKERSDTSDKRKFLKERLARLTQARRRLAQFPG

[2] = molecular target: wild-type human MXA (Myxovirus resistance protein A), MAPPIT bait or prey (Homo sapiens, UniProt P20591)

B1: VHH7, His6-tagged, purified from Pichia pastoris (VHH)
VHH: QVQLQESGGGLVQAGDSLRLSCANSGRTRSAMGWFRQAPGKEREFVAAITWSGYGTYYADSVKGRFTISRDNAKNALYLRMNSLKPDDTAVYYCAARRNQYYSYSSASADYDYWGQGTQVTVSS
binding result [1]: binds

B2: VHH88 (VHH)
chain: QVQLQESGGGLVQAGDSLTLSCARSGRIFNSVPMGWFRQAPGKEREIVAAISGNGVNTYYADSVKGRFAISRDSAKNTYLQMSSLKPEDTAVYYCAARVTPWDTRYYLDDYQYWGQGTQVTVSS
binding result (M527D MXA): binds | binding result [2]: binds

B3: VHH97 (VHH)
chain: B2 chain with D16G, T19R, R24K, N30S, V56E, A69T, S74N, T104S, Q112H
binding result (M527D MXA): binds | binding result [2]: binds

Results, then the binder that gave them:

binding result (M527D MXA): binds | binding result [2]: binds
B4: VHH93 (VHH)
chain: QVQLQESGGGLVQAGDSLRLSCVVSGRFLSGYAVGWFRQAPGNERDFVAAFTWIGGQTSYADSVKGRFTVSRDNAKNTLYLQMNNLKPEDTAVYYCAAKVAIVPPTTARGYDYWGQGTQVTVSS

binding result [1]: binds
B5: VHH5, His6-tagged, purified from Pichia pastoris (VHH)
VHH: QVQLQESGGGLVQAGDSLILSCAASGRTFSSSAMGWFRQAPGKEREFVAAITYSGISTEYADSVKGRFTISRDNPKSTLYLRMNSLKAEDTAVYYCAARRNGYYSRSHYSTDYEYWGRGTQVTVSS
